Measurements taken from patent CN114437205A (DOMA MEDICINE TECH SUZHOU LIMITED COMPANY, dated 2022).

Molecular target: SARS-CoV-2-S2 ECD-his (Acro, S2N-C52H5) (SARS-CoV-2, UniProt P0DTC2 686-1213)
Test: ELISA

B1: 抗体CT150 (antibody, V domains shown)
VH: QEQLVESGGGVVQPGRSLRLSCAASGFTFSSYAMHWVRQAPGEGLEWVALISYDGDNKYYADSVKGRFTISRDNSKTTLFLQMNSLRAEDTAVYYCARDRGSYFYGVDVWGQGATVTVSS
VL: DIQLTQSPSFLSASVGDRVTITCRASQDINSYLAWYQQKPGKAPKLLIYAASTLQSGVPSRFSGSGSGTEFTLTISSLQPEDFATYYCQQLNSYPIFTFGPGTKVDIK
EC50: 8.18 ng/mL
